Patent publication US20260028409A1 (Bristol-Myers Squibb, published 2026)

Columns and labels:
[1] = target: T1, human C-C Motif Chemokine Receptor 8 (hCCR8) (human, UniProt P51685 1-355); assay: FACS on hCCR8-overexpressing Raji cells, fluorescent secondary Ab
T1 construct: also called human CCR8
Protocol: Four of the 6 mAbs bound to the hCCR8-expressing cells with an EC₅₀ below 1 nM (FIG. 2A; see Table 1) whereas no nonspecific binding was observed on the parental Raji cells (FIG. 2B).
FACS was used to evaluate the binding specificity of Abs binding to CCR8. […] Unbound dye was washed away and cells were plated into 96-well round bottom plates at a concentration of 5×10⁵ cells per well in FACS staining buffer (PBS w/o Ca/Mg, 2 mM EDTA, 0.2% BSA). Serial dilutions of mAbs that bind to an epitope other than an N-terminal epitope of CCR8 were added, starting at a concentration of 20 nM, and incubated on ice for 30 min. Unbound Abs were washed off and a detection secondary Ab was added and incubated for 30 min on ice. Additional washes were performed and Ab binding affinities were determined by measuring the fluorescence intensities of the secondary Abs on a LSRFortessa X-20 cytometer (BD Biosciences).

[2] = target: T2, BSA-conjugated peptide corresponding to the N-terminal 35 amino acid residues of hCCR8 (human, two sulfated tyrosine residues (positions not stated for this peptide); conjugated to bovine serum albumin (BSA)); assay: ELISA, hybridoma supernatant on plate-coated BSA-conjugated sulfated N-terminal peptide (2 ug/ml)
T2 construct: Coated at 2 ug/ml on ELISA plates; also called BSA-conjugated CCR8 N-terminal peptide; sulfated N-terminal peptide of CCR8 conjugated to BSA
Protocol: To broadly characterize the epitopes of confirmed CCR8-specific Abs, hybridoma culture supernatants were screened by ELISA to measure binding to hCCR8 N-terminal peptides. Briefly, a BSA-conjugated peptide corresponding to the N-terminal 35 amino acid residues of hCCR8 (SEQ ID NO: 74; 2 μg/ml) representing the properly sulfated hCCR8 N-terminus was coated onto high-binding 96-well plates (Corning, Corning, NY) overnight at 4° C. Plates were blocked with BSA and washed, then 100 μl of culture supernatant were added for 30-60 min on a plate shaker. After washing, an appropriate anti-Fc secondary Ab conjugated to horseradish peroxidase (HRP) was added and left for 30-60 min. The plates were developed with ABTS or HRP substrate (SurModics, Eden Prairie, MN), and absorbance was measured at 405 or 650 nm on a Sunrise microplate reader (TECAN; Mannedorf, Switzerland).

[3] = target: T1, human C-C Motif Chemokine Receptor 8 …; assay: % receptor occupancy against 4A19 concentration, flow cytometry on CCR8^+ Tregs in healthy donor whole blood; one of the two RO formats (direct/total or indirect/total)
Protocol: (§1) A head-to-head comparison of the two distinct RO assay formats was performed. Whole blood samples (180 μl) were pre-treated with various concentrations of the therapeutic mAb, mAb 4A19 (WO 2021/194942), mimicking different 4A19 dose treatment levels in subjects in the dose escalation arm of a Phase I clinical study (NCT04895709), and pre-incubated for 1 h at 37° C. Aliquots of the treated samples were transferred to 4° C. for periods of 24, 48 and 72h for specimen stability experiments.
(§2) After pre-incubation, tubes containing background samples were treated with a saturating concentration ([…]) of mAb 4A19, while other tubes (containing free or bound or FMO [fluorescence minus one] samples) were treated with PBS (equal volume as mAb 4A19) for 30 min at room temperature (RT). […]

[4] = target: T1, human C-C Motif Chemokine Receptor 8 …; assay: % receptor occupancy against 4A19 concentration, flow cytometry on CCR8^+ Tregs in healthy donor whole blood; the other of the two RO formats (direct/total or indirect/total)
Protocol: as §1, §2

[5] = target: T1, human C-C Motif Chemokine Receptor 8 …; assay: cell-based or functional assay

T2 sequence (peptide, as listed by the source): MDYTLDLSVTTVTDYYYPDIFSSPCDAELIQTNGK
T1 sequence (P51685 whole entry): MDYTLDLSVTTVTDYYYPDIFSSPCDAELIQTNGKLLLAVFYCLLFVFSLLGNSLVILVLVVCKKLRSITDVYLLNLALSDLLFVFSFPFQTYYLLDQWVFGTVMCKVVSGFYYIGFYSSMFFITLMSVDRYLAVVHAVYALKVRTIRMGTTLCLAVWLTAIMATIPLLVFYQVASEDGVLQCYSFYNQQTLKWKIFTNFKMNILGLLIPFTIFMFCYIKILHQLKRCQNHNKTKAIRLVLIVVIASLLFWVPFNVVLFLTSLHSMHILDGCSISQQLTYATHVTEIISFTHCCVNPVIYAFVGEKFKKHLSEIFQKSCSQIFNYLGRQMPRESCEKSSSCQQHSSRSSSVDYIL

EC50 [1] [nM]	binding result [2]	EC50 [3] [nM]	EC50 [4] [nM]	Maximum Depletion (%) of CCR8^+ Tregs Relative to KLH Isotype Control; Endometrial cancer [5] [%]	Maximum Depletion (%) of CCR8^+ Tregs Relative to KLH Isotype Control; Head and neck squamous cell carcinoma [5] [%]	Binder
0.0807	no binding					21C17 mIgG2a (antibody, V domains shown, Used unlabeled or conjugated to BV421; also called mAb 21C17; 21C17-mG2a) VH: VVQLQQSGPVLVKPGASVKMSCAASGYTFTDNYINWVKQRHGKSLEWIGVINPYNGLTAYDQNFKGKATLTVDKSSSTAYMALNSLTSEASAVYYCARRYGGTPVRYFDVWGTGTTVTVSS VL: DVVLTQTPLTLSVTIGQPASISCKSSQSLLDSSGKTYLNWLLQRPGQSPKRLIYLVSKLDSGVPDRFSGSGSGTDFTLKFSRVEAEDLGVYYCWQATHFPWSFGGGSKLEVKR
0.0815	no binding					22B13 mIgG2a (antibody, V domains shown, also called 22B13-mG2a) VH: VVQLQQSGPVLVKPGASVKMSCAASGYTFTDNYINWVKQRHGKSLEWIGVINPYNGLTAYDQNFKGKATLTVDKSSSTAYMALNSLTSEASAVYYCARRYGGTPVRYFDVWGTGTTVTVSS VL: DIQMTQTASSLSASLGARVTISCRASQDISNYLNWYQQKPDGTFELLIYYTSRLHSGVPSRFSGSGSGTDYSLTITNLEQEDIATYFCQQGETLPWTFGGGTKLEIKR
		0.022	0.023	69	25	mAb 4A19 (antibody, human IgG1, kappa, V domains shown, Therapeutic anti-hCCR8 mAb of WO 2021/194942; also called therapeutic anti-CCR8 mAb 4A19; A419) VH: QVQLVQSGAEVKKPGASVKVSCKASGYTFTDSEMHWVRQATGQGLEWMGAIQPETGGTAYNQKFKARVTMTRDTSISTAYMELSSLRSEDTAVYYCARRRRNFDYWGQGTLVTVSS VL: DIVMTQTPLSLSVTPGQPASISCRSSQSLFHSSGNTYLHWYLQKPGQPPQLLIYKVSNRFSGVPDRFSGSGSGTDFTLKISRVEAEDVGVYYCSQSTHVPFTFGQGTKLEIKR
0.112	no binding					23A14 hIgG1 (antibody, V domains shown, Tested as hIgG1; also called 23A14-hG1) VH: QVQLVESGGGVVQPGRSLRLSCAVSGLTFSSYAMHWVRQAPGKGLEWVAVISYDGNKKYNADSVKGRFTISRDNSKNTLYLQMNSLRAEDTAVYYCARAEGKGDYWGQGTLVTVSS VL: EIVLTQSPATLSLSPGERATLSCRASQSVSSYLVWYQQKPGQAPRLLIYDASNRATGIPARFSGSGSGTDFTLTISSLEPEDFAVYYCQQRSNWPRTFGQGTKVEIKR
